This is an account of results in US20220380463A1 (Adimab, published 2022).

For this assay, the target named is T1, Cynomolgus CD3εδ Fc heterodimer (Cy CD3ε Fc / CD3δ Fc-HIS) (cynomolgus, UniProt Q95LI8 22-100).
T1 chain 1: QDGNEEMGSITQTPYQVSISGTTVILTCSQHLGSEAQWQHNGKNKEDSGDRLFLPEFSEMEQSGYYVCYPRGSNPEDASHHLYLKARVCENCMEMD
T1 chain 2: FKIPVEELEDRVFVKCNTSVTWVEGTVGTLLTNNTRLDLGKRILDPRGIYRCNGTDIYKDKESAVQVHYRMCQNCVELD
Put plainly: BLI (Octet), IgG on AHC sensor, pH 6.0. Background: In BLI a coated tip is dipped into the sample, and binding shifts an interference pattern.

B1: SAD10320_P01_F02 (ADI-57350) (antibody, V domains shown)
VH: QVQLVQSGAEVKKPGASVKVSCKASGFNIKDYYMHWVRQAPGQRLERMGWIDLENANTIYDAKFQGRVTITRDTSASTAYMELSSLRSEDTAVYYCARDAYGHTFYDVWGQGTLVTVSS
VL: DIVMTQSPDSLAVSLGERATINCKSSQSLLNARTGKNYLAWYQQKPGQPPKLLIYWASTRESGVPDRFSGSGSGTDFTLTISSLQAEDVAVYYCKQSYWHRTFGGGTKVEIK
notes: IgG; also called Ab56
As a reminder, the koff is the first-order rate constant of dissociation. High values mean fast dissociation, low ones slow dissociation. B1 yielded a koff of 0.0194 s⁻¹.

B2: SAD10320_P01_G03 (ADI-57358) (antibody, V domains shown)
VH: QVQLVQSGAEVKKPGASVKVSCKASGFNIKDYYMHWVRQAPGQRPEWMGWIDLENANTIYDAKFQGRVTITRDTSASTAYMELSSLRSEDTAVYYCARDAYGHSFYDVWGQGTLVTVSS
VL: DIVMTQSPDSLAVSLGERATINCKSSQSLLNARTGKNYLAWYQQKPGQPPKLLIYWASTRESGVPDRFSGSGSGTDFTLTISSLQAEDVAVYYCKQSYHWRTFGGGTKVEIK
notes: IgG; also called Ab66
Molecule B2 gave a koff of 0.0215 s⁻¹.

B3: SAD10320_P01_E03 (ADI-57357) (antibody, V domains shown)
VH: QVQLVQSGAEVKKPGASVKVSCKASGFNIKDYYMHWVRQAPGQRLERMGWIDLENANTIYDAKFQGRVTITRDTSASTAYMELSSLRSEDTAVYYCARDAYGHGFYDVWGQGTLVTVSS
VL: DIVMTQSPDSLAVSLGERATINCKSSQSLLNARTGKNYLAWYQQKPGQPPKLLIYWASTRESGVPDRFSGSGSGTDFTLTISSLQAEDVAVYYCKQSYRHRTFGGGTKVEIK
notes: IgG; also called Ab64
B3 gave a dissociation rate constant (koff) of 0.0223 s⁻¹.

B4: SAD10320_P02_B04 (ADI-57273) (antibody, V domains shown)
VH: QVQLVQSGAEVKKPGASVKVSCKASGFNIKDYYMHWVRQAPGQRLERMGWIDLENANTIYDAKFQGRVTITRDTSASTAYMELSSLRSEDTAVYYCARDAYGHGFYDVWGQGTLVTVSS
VL: DIVMTQSPDSLAVSLGERATINCKSSQSLLNARTGKNYLAWYQQKPGQPPKLLIYWASTRESGVPDRFSGSGSGTDFTLTISSLQAEDVAVYYCKQSYGHRTFGGGTKVEIK
notes: IgG; ADI-57273 is also printed for Ab114; also called Ab70
As to B4, the koff turned out to be 0.0176 s⁻¹.

B5: SAD10320_P02_H04 (ADI-57362) (antibody, V domains shown)
VH: QVQLVQSGAEVKKPGASVKVSCKASGFNIKDYYMHWVRQAPGQRLDWMGWIDLENANTIYDAKFQGRVTITRDTSASTAYMELSSLRSEDTAVYYCARDAYGHLFYDVWGQGTLVTVSS
VL: DIVMTQSPDSLAVSLGERATINCKSSQSLLNARTGKNYLAWYQQKPGQPPKLLIYWASTRESGVPDRFSGSGSGTDFTLTISSLQAEDVAVYYCKQSHMRRTFGGGTKVEIK
notes: IgG; also called Ab73
In the case of B5, the koff came out at 0.0278 s⁻¹. Against the preceding molecule, the koff is about 1.6-fold higher.

B6: SAD10320_P01_G02 (ADI-57351) (antibody, V domains shown)
VH: QVQLVQSGAEVKKPGASVKVSCKASGFNIKDYYMHWVRQAPGQRLQWMGWIDLENANTIYDAKFQGRVTITRDTSASTAYMELSSLRSEDTAVYYCARDAYGHSFYDVWGQGTLVTVSS
VL: DIVMTQSPDSLAVSLGERATINCKSSQSLLNARTGKNYLAWYQQKPGQPPKLLIYWASTRESGVPDRFSGSGSGTDFTLTISSLQAEDVAVYYCKQSYHERTFGGGTKVEIK
notes: IgG; also called Ab57
As to B6, the koff was found to be 0.0197 s⁻¹.

B7: SAD10320_P02_A04 (ADI-57360) (antibody, V domains shown)
VH: QVQLVQSGAEVKKPGASVKVSCKASGFNIKDYYMHWVRQAPGQRLEWMGWIDLENANTIYDAKFQGRVTITRDTSASTAYMELSSLRSEDTAVYYCARDAYGHAFYDVWGQGTLVTVSS
VL: DIVMTQSPDSLAVSLGERATINCKSSQSLLNARTGKNYLAWYQQKPGQPPKLLIYWASTRESGVPDRFSGSGSGTDFTLTISSLQAEDVAVYYCKQSLHRRTFGGGTKVEIK
notes: IgG; also called Ab68
Regarding B7, the koff was determined as 0.0182 s⁻¹. The koff values of the last two molecules are within 1.5-fold of each other.

B8: SAD10320_P02_B05 (ADI-57364) (antibody, V domains shown)
VH: QVQLVQSGAEVKKPGASVKVSCKASGFNIKDYYMHWVRQAPGQRLEWMGWIDLENANTIYDAKFQGRVTITRDTSASTAYMELSSLRSEDTAVYYCARDAYGHNFYDVWGQGTLVTVSS
VL: DIVMTQSPDSLAVSLGERATINCKSSQSLLNARTGKNYLAWYQQKPGQPPKLLIYWASTRESGVPDRFSGSGSGTDFTLTISSLQAEDVAVYYCKQSYTHRTFGGGTKVEIK
notes: IgG; also called Ab75
Molecule B8 had a koff of 0.00269 s⁻¹.

B9: SAD10320_P02_A05 (ADI-57363) (antibody, V domains shown)
VH: QVQLVQSGAEVKKPGASVKVSCKASGFNIKDYYMHWVRQAPGQRLEWMGWIDLENANTIYDAKFQGRVTITRDTSASTAYMELSSLRSEDTAVYYCARDAYGHMFYDVWGQGTLVTVSS
VL: DIVMTQSPDSLAVSLGERATINCKSSQSLLNARPGKNYLAWYQQKPGQPPKLLIYWASTRESGVPDRFSGSGSGTDFTLTISSLQAEDVAVYYCKQSYHMRTFGGGTKVEIK
As to B9, the dissociation rate constant (koff) was 0.0168 s⁻¹.

B10: SAD10320_P01_H03 (ADI-57359) (antibody, V domains shown)
VH: QVQLVQSGAEVKKPGASVKVSCKASGFNIKDYYMHWVRQAPGQRPEWMGWIDLENANTIYDAKFQGRVTITRDTSASTAYMELSSLRSEDTAVYYCARDAAHRYFYDVWGQGTLVTVSS
VL: DIVMTQSPDSLAVSLGERATINCKSSQSLLNARPRKNYLAWYQQKPGQPPKLLIYWASTRESGVPDRFSGSGSGTDFTLTISSLQAEDVAVYYCKQSHDRRTFGGGTKVEIK
notes: IgG; also called Ab67
Consider B10, for which the koff was 0.00291 s⁻¹.

B11: SAD10320_P02_E05 (ADI-57366) (antibody, V domains shown)
VH: QVQLVQSGAEVKKPGASVKVSCKASGFNIKDYYMHWVRQAPGQRLEWMGWIDLENANTIYDAKFQGRVTITRDTSASTAYMELSSLRSEDTAVYYCARDMHGRYFYDVWGQGTLVTVSS
VL: DIVMTQSPDSLAVSLGERATINCKSSQSLLNARTGKNYLAWYQQKPGQPPKLLIYWASTRESGVPDRFSGSGSGTDFTLTISSLQAEDVAVYYCKQSEHRRTFGGGTKVEIK
notes: IgG; also called Ab78
As to B11, the koff came out at 0.00318 s⁻¹.

B12: SAD10320_P02_C05 (ADI-57365) (antibody, V domains shown)
VH: QVQLVQSGAEVKKPGASVKVSCKASGSNIKDYYMHWVRQAPGQRLEWMGWIDLENANTIYDAKFQGRVTITRDTSASTAYMELSSLRSEDTAVYYCARDAYGHSFYDVWGQGTLVTVSS
VL: DIVMTQSPDSLAVSLGERATINCKSSQSLLNARTGKNYLAWYQQKPGQPPKLLIYWASTRESGVPDRFSGSGSGTDFTLTISSLQAEDVAVYYCKQSYHGRTFGGGTKVEIK
notes: IgG; also called Ab76
On to B12, for which the koff worked out at 0.0207 s⁻¹.

B13: SAD10320_P01_H02 (ADI-57352) (antibody, V domains shown)
VH: QVQLVQSGAEVKKPGASVKVSCKASGFNIKDYYMHWVRQAPGQRLEWMGWIDLENANTIYDAKFQGRVTITRDTSASTAYMELSSLRSEDTAVYYCARDAYGHSFYDVWGQGTLVTVSS
VL: DIVMTQSPDSLAVSLGERATINCKSSQSLLNARTGKNYLAWYQQKPGQPPKLLIYWASTRESGVPDRFSGSGSGTDFTLTISSLQAEDVAVYYCKQSMHRRTFGGGTKVEIK
For B13, the koff turned out to be 0.00334 s⁻¹.

B14: SAD10320_P01_C03 (ADI-57355) (antibody, V domains shown)
VH: QVQLVQSGAEVKKPGASVKVSCKASGFNIKDYYMHWVRQAPGQRLEWMGWIDLENANTIYDAKFQGRVTITRDTSASTAYMELSSLRSEDTAVYYCARDAYGHSFYDVWGQGTLVTVSS
VL: DIVMTQSPDSLAVSLGERATINCKSSQSLLNARTGKNYLAWYQQKPGQPPKLLIYWASTRESGVPDRFSGSGSGTDFTLTISSLQAEDVAVYYCKQSYHWRTFGGGTKVEIK
notes: IgG; also called Ab62
As to B14, the koff was 0.0195 s⁻¹.

B15: SAD10320_P01_D03 (ADI-57356) (antibody, V domains shown)
VH: QVQLVQSGAEVKKPGASVKVSCKASGFDIKDYYMHWVRQAPGQRLEWMGWIDLENANTIYDAKFQGRVTITRDTSASTAYMELSSLRSEDTAVYYCARDAYGHAFYDVWGQGTLVTVSS
VL: DIVMTQSPDSLAVSLGERATINCKSSQSLLNARTGKNYLAWYQQKPGQPPKLLIYWASTRESGVPDRFSGSGSGTDFTLTISSLQAEDVAVYYCKQSYHGRTFGGGTKVEIK
notes: IgG; also called Ab63
B15 came in with a koff of 0.00263 s⁻¹.
